# Target: human thrombin (human) (UniProt P00734)
# Assay: cell-based or functional assay
inhibition of the amidase activity of thrombin at 1 µM peptide [%],inhibition of the amidase activity of thrombin at 250 nM peptide [%],Substance
63,,N-acetyl-L-Trp-L-Cha-D-Pro-D-Tyr-L-Arg amide (peptide)
47,,N-acetyl-D-Tyr-L-Cha-D-Pro-D-Tyr-L-Arg amide (peptide)
,72,N-acetyl-L-Iq3-D-Cha-L-Aze-D-Tyr-L-Har amide (peptide)
48,,N-acetyl-D-Lys-L-Nle-L-Cha-D-Pro-D-Tyr-L-Arg amide (peptide)
45,,N-acetyl-D-Val-L-Cha-D-Pro-D-Tyr-L-Arg amide (peptide)
,89,N-acetyl-L-Nle-D-Cha-L-Aze-D-Tyr-L-Har amide (peptide)
47,,N-acetyl-L-Ser-L-Ala-L-Cha-D-Pro-D-Tyr-L-Arg amide (peptide)
,77,N-acetyl-L-Ala-D-Cha-L-Aze-D-Tyr-L-Har amide (peptide)
51,,N-acetyl-L-Ser-L-Arg-L-Cha-D-Pro-D-Tyr-L-Arg amide (peptide)
63,,N-acetyl-L-Ala-D-Cha-L-Aze-D-Tyr-L-Arg amide (peptide)
,80,N-acetyl-L-Nhm-D-Cha-L-Aze-D-Tyr-L-Har amide (peptide)
47,,N-acetyl-L-Arg-L-Cha-D-Pro-D-Tyr-L-Arg amide (peptide)
58,,N-acetyl-D-Glu-L-Cha-D-Pro-D-Tyr-L-Arg amide (peptide)
,76,N-acetyl-L-Ppd-D-Cha-L-Aze-D-Tyr-L-Har amide (peptide)
61,,N-acetyl-L-Ile-L-Arg-L-Cha-D-Pro-D-Tyr-L-Arg amide (peptide)
,72,N-acetyl-L-Pnp-D-Cha-L-Aze-D-Tyr-L-Har amide (peptide)
44,,N-acetyl-L-Ala-L-Cha-D-Pro-D-Tyr-L-Arg amide (peptide)
,74,N-acetyl-L-Tea-D-Cha-L-Aze-D-Tyr-L-Har amide (peptide)
51,,N-acetyl-D-Val-D-His-L-Cha-D-Pro-D-Tyr-L-Arg amide (peptide)
59,,N-acetyl-D-Gln-D-His-L-Cha-D-Pro-D-Tyr-L-Arg amide (peptide)
40,,N-acetyl-L-Ser-L-Ser-L-Cha-D-Pro-D-Tyr-L-Arg amide (peptide)
,95,N-acetyl-L-Phg-D-Cha-L-Aze-D-Tyr-L-Har amide (peptide)
44,,N-acetyl-L-Tyr-D-Pro-L-Cha-D-Pro-D-Tyr-L-Arg amide (peptide)
,75,N-acetyl-L-Dcp-D-Cha-L-Aze-D-Tyr-L-Har amide (peptide)
55,,N-acetyl-L-Tyr-L-Cit-L-Cha-D-Pro-D-Tyr-L-Arg amide (peptide)
,90,N-acetyl-L-Cha-D-Cha-L-Aze-D-Tyr-L-Har amide (peptide)
56,,N-acetyl-L-Ala-D-Cha-L-Pro-D-Tyr-L-Har amide (peptide)
,76,N-acetyl-L-Trp-D-Cha-L-Aze-D-Tyr-L-Har amide (peptide)
,77,N-acetyl-D-Phe-D-Cha-L-Aze-D-Tyr-L-Har amide (peptide)

# Target: human thrombin (human) (UniProt P00734)
# Assay: competitive inhibition of human thrombin hydrolysis of the fluorogenic substrate Tos-Gly-Pro-Arg-AMC, Hanes analysis
row,Ki [nM],Substance
1,3,Trans-4-(guanidinomethyl)cyclohexanecarboxylic acid-D-Cha-L-Aze-D-Try-L-Har amide (peptide)
2,7,Tranexamic acid-D-Cha-L-Aze-D-Try-L-Har amide (peptide)

# Source: patent US7423021
